Experiment [1] addresses T1, E. coli RAGE Construct #7, 6His-(Thr)-[RAGE (235-336)] (human).
T1 construct: N-terminal 6His-(Thr) tag is part of the entry; expressed in E. coli; also called RAGE protein #7
T1 chain: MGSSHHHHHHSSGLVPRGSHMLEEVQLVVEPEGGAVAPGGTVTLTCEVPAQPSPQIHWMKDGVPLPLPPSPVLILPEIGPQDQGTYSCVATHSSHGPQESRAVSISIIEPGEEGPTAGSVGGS
Description: ELISA, antigen coated at 1 ug/ml. How it is done: (§1) Antigens (purified construct #1-7 proteins) were diluted into Coating Buffer [100 mM NaHCO₃, pH 8.2] to 1 μg/ml, and 100 μl of the resulting solution was then aliquoted into a 96-well Nunc Immuno Plate (Maxi-Sorb Surface, flat bottom, catalog #439454). The plate was sealed with sealing film and incubated at 4° C. overnight. The next day, the plate wells were each washed 3 times with 150 μL PBST buffer [Sigma PBS+0.05% Tween 20]. Then 300 ul of blocking solution (3% NFDM in PBST) was added to each well. The plate was incubated for 2 hours at room temperature and shaking at 100 rpm. After the incubation step, each well was again washed three times with 150 uL PBST. 100 ul of the corresponding antibody to be tested (i.e. 7F9, 11E6, and 4E5) was added at various dilutions made in PBST/0.5% BSA. The plate was then sealed with sealing film and incubated for 2 hours at room temperature and shaking at 100 rpm. Next the antibody solution was drained out of the wells, and each well then washed three times with 200 ul PBST. To each well then 200 ul of a 1:5000 dilution (in PBST/1% NFDM) of conjugated secondary antibody [Donkey anti-mouse HRPO conjugate, Jackson Immuno Research, Catalog #715-035-150] was added. […] Finally, 50 μL of 2M H₂SO₄ was added to each well to stop the reaction and the […] of each well was measured using a microtiter plate reader.

Experiment [2] deals with T1, E. coli RAGE Construct #7, …. Description: binding analysis of RAGE mutants of human sRAGE expressed in E. coli.
Experiment [3] addresses T2, RAGE fragment coated in Fig. 4C (antigen not named on the sheet).
T2 construct: Placeholder: the panel cannot be tied to one of m19-m25
Description: direct ELISA: purified E. coli RAGE construct protein coated at 1 ug/mL (construct not named for this panel), mAb titrated, donkey anti-mouse HRP, TMB. Here is the method: as §1
For orientation: In an ELISA, binding on a coated surface is turned into a signal by an enzyme label.

B1: anti-human RAGE monoclonal antibody 4E5 (murine, hybridoma-derived) (antibody, V domains shown)
VH: QVQLQQSGAELVRPGTSVKVSCKASGYAFNNYLIEWIKQRPGQGLEWIGVINPGSGGTNHNEKFKVKATLTADKSSSTAYIQLSSLTSDDSAVYFCARSAGTARARFAYWGQGTLVTVSA
VL: DIQMTQSPSSLSASLGERVSLTCRASQDIGSSLNWLQQEPDGTIKRLIYATSSLDSGVPKRFSGSRSGSDYSLTISSLESEDFVDYYCLQYASFPFTFGSGTKLEIKR
notes: also called mAb4E5; ML37-4E5
On to B1, for which, in experiment [1], the binding result was “binds”.

B2: anti-human RAGE monoclonal antibody 11E6 (murine, hybridoma-derived) (antibody, V domains shown)
VH: QIQLVQSGPELKKPGETVKISCKASGYTFTNFGMNWVKQAPGKGLKWMGYINTNTGESIYSEEFKGRFAFSLETSASTAYLQINNLKNEDTATYFCARSRMVTAYGMDYWGQGTSVTVSS
VL: DIVMTQSQKFMSTSVGDRVSITCKASQNVGTAVAWYQQRPGQSPKLLIFSASNRYTGVPDRFTGSGSGTDFTLTLSNMQPEDLADYFCQQYSSYPLTFGVGTKLELKR
notes: also called mAb11E6; ML37-11E6
Broadly, the EC50 (read off the curve) is the concentration needed to bring the measured effect to its halfway point. For B2, the binding result in experiment [2] is listed as “binds”. Moreover, the half-maximal effective concentration (EC50 (read off the curve)) in experiment [3] is approximately 0.03 nM.

The values above are taken from patent US20150307610A1 (AbbVie / Abbott, published 2015).
